Assay results as given in patent US20220135628A1 (OXFORD UNIVERSITY INNOVATION, published 2022).
Read-outs that look alike come from different tables or passages of the source. No end group written: not given here.

B1: SpyCatcher003-sfGFP (designed binder)
chain: VTTLSGLSGEQGPSGDMTTEEDSATHIKFSKRDEDGRELAGATMELRDSSGKTISTWISDGHVKDFYLYPGKYTFVETAAPDGYEVATPIEFTVNEDGQVTVDGEATEGDAHT
notes: also called SpyCatcher003 fused to the N-terminus of super-folder GFP; not shown: super-folder GFP (sfGFP) C-terminal of the catcher
B2: SpyCatcher003 (designed binder)
chain: B1 chain
notes: also called 003 Catcher

What was measured:
[1] = biological target: SpyTag003-MBP; experiment: SDS-PAGE with sfGFP fluorescence, pH 7.0, 25 C
Description: (§1) The sfGFP fusions were used to enable reactions to be carried out at concentrations as low as 10 nM. […] Percentage isopeptide product formation was calculated by dividing the intensity of the band for the covalent complex by the intensity of all the bands in the lane and multiplying by 100. […] Time-points were analysed during the linear portion of the reaction curve. […] Experiments were carried out in triplicate and the data represent the mean±1 standard deviation.

[2] = biological target: T1, SpyTag-MBP; experiment: SDS-PAGE with sfGFP fluorescence, pH 7.0, 25 C
T1 construct: not shown: construct pET28a-SpyTag-MBP, Addgene 35050

[3] = biological target: SpyTag003-MBP; experiment: SDS-PAGE with sfGFP fluorescence, pH 7.0, 25 C; remark: listed apart in the source
Description: as §1

[4] = biological target: T2, SpyTag002-MBP (also: fused to MBP, sequence and linker not given here); experiment: SDS-PAGE with sfGFP fluorescence, pH 7.0, 25 C
T2 construct: not shown: construct pET28a SpyTag002-MBP, GenBank MF974389
T2 chain: VPTIVMVDAYKRYK

[5] = biological target: T3, SpyTag003 DA-MBP (also: fused to MBP, sequence and linker not given here); experiment: isothermal titration calorimetry, 20 C, PBS pH 7.4, non-covalent complex
T3 chain: RGVPHIVMVAAYKRYK

Binder | Rate constant (second-order, isopeptide bond formation) [1] [M⁻¹ s⁻¹] | Rate constant (second-order, isopeptide bond formation) [2] [M⁻¹ s⁻¹] | Rate constant (second-order, isopeptide bond formation) [3] [M⁻¹ s⁻¹] | Rate constant (second-order, isopeptide bond formation) [4] [M⁻¹ s⁻¹] | Kd [5] [nM]
B1 | 550000 | 24000 | 550000 | 83000 | 
B2 |  |  |  |  | < 10
